Measurements published in US20260028407A1 (FIBROGEN, published 2026).
Read-outs that look alike come from different tables or passages of the source.

Tests used:
human Galectin-9 (Gal9) [1] = target: T1, human Galectin-9 (Gal9) (human, UniProt O00182-2 1-323, limits assumed); test: SPR
T1 construct: also called human Gal9

human Galectin-9 (Gal9) [2] = target: T1, human Galectin-9 (Gal9); test: SPR; remark: listed apart in the source
[3] = target: T2, Gal9 as added in the T-cell apoptosis and TIM-3 dimerization assays (species not stated); test: cell-based or functional assay
human Galectin-9 (Gal9) [4] = target: T1, human Galectin-9 (Gal9); test: solution equilibrium assay (SEA), human Gal9
mouse Galectin-9 (Gal9) [5] = target: T3, mouse Galectin-9 (Gal9) (mouse, UniProt O08573-2 2-322, limits assumed); test: solution equilibrium assay (SEA), mouse Gal9
T3 construct: also called mouse Gal9

human Galectin-9 (Gal9) [6] = target: T1, human Galectin-9 (Gal9); test: solution equilibrium assay (SEA), human Gal9; remark: listed apart in the source
mouse Galectin-9 (Gal9) [7] = target: T3, mouse Galectin-9 (Gal9); test: solution equilibrium assay (SEA), mouse Gal9; remark: listed apart in the source
[8] = target: T2, Gal9 as added in the T-cell apoptosis …; test: cell-based or functional assay; remark: listed apart in the source
[9] = target: T2, Gal9 as added in the T-cell apoptosis …; test: cell-based or functional assay; remark: listed apart in the source
[10] = target: T2, Gal9 as added in the T-cell apoptosis …; test: cell-based or functional assay; remark: listed apart in the source

T2 sequence (O00182 whole entry): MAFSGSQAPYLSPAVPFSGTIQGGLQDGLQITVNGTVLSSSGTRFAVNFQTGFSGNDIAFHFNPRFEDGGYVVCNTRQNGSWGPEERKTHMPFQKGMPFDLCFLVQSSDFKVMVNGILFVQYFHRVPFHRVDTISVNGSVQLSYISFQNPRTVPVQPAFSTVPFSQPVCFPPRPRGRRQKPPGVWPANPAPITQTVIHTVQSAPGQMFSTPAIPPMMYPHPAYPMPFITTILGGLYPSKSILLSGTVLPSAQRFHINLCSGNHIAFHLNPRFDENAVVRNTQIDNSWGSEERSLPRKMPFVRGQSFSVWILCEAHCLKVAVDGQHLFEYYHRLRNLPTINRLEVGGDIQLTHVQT
T1 sequence (O00182 other isoform, or with tags, fused parts or gaps limits assumed): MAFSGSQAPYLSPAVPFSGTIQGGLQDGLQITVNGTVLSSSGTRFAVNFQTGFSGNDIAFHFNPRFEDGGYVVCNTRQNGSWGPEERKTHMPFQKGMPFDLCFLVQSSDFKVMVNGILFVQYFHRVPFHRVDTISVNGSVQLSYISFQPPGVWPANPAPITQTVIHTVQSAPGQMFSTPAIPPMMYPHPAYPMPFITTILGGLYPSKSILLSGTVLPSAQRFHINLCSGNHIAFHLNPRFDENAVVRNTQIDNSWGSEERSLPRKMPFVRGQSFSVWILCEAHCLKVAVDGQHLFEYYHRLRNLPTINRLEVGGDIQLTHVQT
T3 sequence (O08573 other isoform, or with tags, fused parts or gaps limits assumed): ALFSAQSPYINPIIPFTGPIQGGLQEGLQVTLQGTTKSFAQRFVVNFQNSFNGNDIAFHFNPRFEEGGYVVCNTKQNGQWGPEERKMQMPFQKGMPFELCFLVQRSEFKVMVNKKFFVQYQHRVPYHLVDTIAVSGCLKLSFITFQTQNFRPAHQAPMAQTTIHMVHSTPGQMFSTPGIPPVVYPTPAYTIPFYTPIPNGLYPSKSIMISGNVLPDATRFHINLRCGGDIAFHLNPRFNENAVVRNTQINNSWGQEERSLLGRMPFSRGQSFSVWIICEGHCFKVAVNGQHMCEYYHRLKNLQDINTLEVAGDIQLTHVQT

| Kd (human Galectin-9 (Gal9) [1]) [nM] | koff (human Galectin-9 (Gal9) [1]) [s⁻¹] | kon (human Galectin-9 (Gal9) [1]) [M⁻¹ s⁻¹] | Kd (human Galectin-9 (Gal9) [2]) [nM] | koff (human Galectin-9 (Gal9) [2]) [s⁻¹] | kon (human Galectin-9 (Gal9) [2]) [M⁻¹ s⁻¹] | IC50 of reducing Gal9-induced CD4+ T cell apoptosis [3] [nM] | Kd (human Galectin-9 (Gal9) [4]) [nM] | Kd (mouse Galectin-9 (Gal9) [5]) [nM] | Kd (human Galectin-9 (Gal9) [6]) [nM] | Kd (mouse Galectin-9 (Gal9) [7]) [nM] | IC50 (read off the curve), inhibition of Gal9-induced TIM-3 dimerization [8] [nM] | IC50, inhibition of Gal9-induced TIM-3 dimerization (RLU, enzyme fragment complementation) [8] [nM] | IC50 (read off the curve), inhibition of Gal9-induced CD4+ T cell apoptosis [9] [nM] | IC50, inhibition of Gal9-induced CD4+ T cell apoptosis (% AnnexinV+PI+ cells) [9] [nM] | IC50, inhibition of Gal9-induced CD8+ T cell apoptosis (% AnnexinV+PI+ cells) [10] [nM] | Binder |
| --- | --- | --- | --- | --- | --- | --- | --- | --- | --- | --- | --- | --- | --- | --- | --- | --- |
| 7.18 | 0.0099 | 1.4e+06 | 4.9 | 0.00077 | 160000 | 18.7 | 3.1 | 49 | 3.1 | 49 |  |  |  |  |  | antibody A (Ab A), HFB9-2hz11, parental humanized anti-Gal9 antibody (antibody, V domains shown, also called antibody Ab A) VH: QVQLVQSGAEVKKPGASVKVSCKASGYTFTEYTIHWVRQAPGQGLEWMGWFYPGSGSTEYAQKFQGRVTMTADTSISTAYMELSRLRSDDTAVYFCERHGGYDGFDYWGQGTTVTVSS VL: not shown |
|  |  |  |  |  |  |  |  |  |  |  | ~20 |  |  |  |  | antibody 003 (Ab 003), affinity matured anti-Gal9 antibody (antibody, V domains shown, Full HC/LC entries; they may hold a signal peptide) VH: QVQLVQSGAEVKKPGASVKVSCKASGYPFSSYTIHWVRQAPGQGLEWMGWFYPGSGSTEYAQKFQGRVTMTADTSISTAYMELSRLRSDDTAVYFCEVHGGYDGFDYWGQGTTVTVSS VL: not shown |
|  |  |  |  |  |  | 1.9 |  |  |  |  | ~20 | 25 | ~6 | 6.1 | 1.34 | antibody 001 (Ab 001), affinity matured anti-Gal9 antibody (antibody, V domains shown, Full HC/LC entries; they may hold a signal peptide) VH: QVQLVQSGAEVKKPGASVKVSCKASGYEFTEYTIHWVRQAPGQGLEWMGWFYPGSGSTWYAQKFQGRVTMTADTSISTAYMELSRLRSDDTAVYFCERHGGYDGFDYWGQGTTVTVSS VL: not shown |
